2 substances from article PMC2711601 can be followed below.

In this experiment the target is ribosomes of dog pancreas rough microsomes (ribosomal pellet after digitonin solubilisation) (dog (endogenous in dog pancreas microsomes)). In words: co-sedimentation.

Substance “Sec61β, subunit of the Sec61p translocon complex (dog pancreas microsomes) (from UniProt P60467 1-96) (natural protein)” returned a percent pelleted with ribosomes of 80%. “RAMP4 (ribosome-associated membrane protein 4, dog pancreas microsomes) (from UniProt A0A8I3PRN4 1-66) (natural protein)” returned a percent in the ribosome pellet of 10 to 20%.
